Values of other authors, collected in article PMC4525192 (European Journal of Nuclear Medicine and Molecular Imaging, 2014).

Tested on: tumour
Details: intravenously administered

SMILES: C[C@@H](O)[C@@H]1NC(=O)[C@H](CCCCN)NC(=O)[C@@H](Cc2c[nH]c3ccccc23)NC(=O)[C@H](Cc2ccc(O)cc2)NC(=O)[C@@H](NC(=O)[C@@H](Cc2ccccc2)NC(=O)CN2CCN(CC(=O)O)CCN(CC(=O)O)CCN(CC(=O)O)CC2)CSSC[C@@H](C(=O)N[C@H](CO)[C@@H](C)O)NC1=O [DOTATOC, (DOTA^0-Phe^1-Tyr^3) octreotide]
- Time after injection at which 80 % of Umax is reached: 45 min
- Time of tumoral accumulation maximum (Umax) after injection: about 70 min
